Data reported in US20240042051A1 (Novartis, published 2024).

T1: Human CD48 (recombinant, humanCD48 aa29-220) (human, UniProt P09326 29-220)
T1 construct: SPR analyte in solution; also called analyte human CD48; not shown: C-terminal tag (hFc1P, APP6-Avi or His)
T1 sequence: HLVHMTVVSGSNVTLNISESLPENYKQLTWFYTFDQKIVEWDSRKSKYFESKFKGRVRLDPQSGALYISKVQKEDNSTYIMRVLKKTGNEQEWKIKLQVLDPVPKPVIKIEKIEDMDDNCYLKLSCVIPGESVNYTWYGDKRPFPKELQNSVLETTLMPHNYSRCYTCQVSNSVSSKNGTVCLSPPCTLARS

T2: hCD48EC:mouse-Ig construct #2248 (ENYKQ modified into GSSKQ) (human, UniProt P09326 27-220, limits assumed)
T2 construct: extracellular domain; not shown: mouse IgG1 part of the fusion
T2 sequence (looked up): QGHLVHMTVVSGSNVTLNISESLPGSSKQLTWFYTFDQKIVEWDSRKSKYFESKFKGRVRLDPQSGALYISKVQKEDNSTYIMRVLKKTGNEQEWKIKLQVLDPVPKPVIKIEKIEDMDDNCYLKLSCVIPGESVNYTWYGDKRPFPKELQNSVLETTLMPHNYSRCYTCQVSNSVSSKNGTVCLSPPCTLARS


Columns and labels:
[1] = biological target: T1, Human CD48 (recombinant, humanCD48 …); experiment: SPR Biacore T200, antibody captured on protein A chip, CD48 as analyte, 25 °C, 1:1 model
Protocol: The anti-CD48 antibodies were diluted at 5 μg/ml and injected on flow cells 2 and 4 for 20 sec at 10 μl/min. Capture level for all antibodies was 370-440 RU. Flow cells 1 and 3 were left blank (no antibody captured) and used as a reference surface. Human and cynomolgus CD48 served as analytes in solution. […] After each cycle of antibody capture and analyte injection, the chip surface was regenerated with 10 mM Glycine-HCl pH 1.5 (Cytiva, ordering #BR100354) for 2×30 s at a flow rate of 50 μl/min. Three runs with duplicate measurements and buffer blank injections were performed. Measurements were executed at 25° C. and data collected at a rate of 10 Hz.
[…] The raw data were double referenced, i.e. the response of the measuring flow cells was corrected for the response of the reference flow cells (no antibody captured), and in a second step the response of a blank injection (buffer) was subtracted. Finally, the sensorgrams were fitted by applying a 1:1 interaction model with a constant fit of RI (0) and a global fit for Rₘₐₓ. Kinetic rate constants (kₐ, kd) and equilibrium dissociation constants (KD) were calculated. Data were processed separately for each run. The generated values were used to calculate average values and standard deviations of the respective equilibrium dissociation constants and the kinetic rate constants.

[2] = biological target: T2, hCD48EC:mouse-Ig construct #2248 (ENYKQ …); experiment: ELISA, HEK293T culture supernatant (1:10) with the CD48-mouse Ig construct, antibody at 25, 250 and 500 ng/mL, detection goat anti-mouse IgG (H+L) HRP, Mean OD450-570
From the text: Non-mutated CD48-mouse IgG fusion peptide served as positive control and non-transfected cell supernatant as negative control.

Kd [1] [nM] | koff [1] [s⁻¹] | kon [1] [M⁻¹ s⁻¹] | binding result [2] | Binder
0.5 | 0.00013 | 250000 |  | NY938 (antibody, human IgG1, kappa, V domains shown, also called anti-CD48 antibody NY938; NY938 IgG) VH: QVQLVQSGAEVKKPGASVKVSCKASGYTFTEYTMHWVRQAPGQGLEWMGGINPDTGDTSYNQKFTGRATLTVDKSTSTAYMELSSLRSEDTAVYYCARAQFWTTPRFAYWGQGTLVTVSS VL: DIQMTQSPSSLSASVGDRVTITCKASQDVGTAVAWYQQKPGKVPKLLIYWASTRHTGVPSRFSGSGSGTDFTLTISSLQPEDVATYYCQQYSTYPITFGQGTKLEIKR
10 | 0.00074 | 72000 |  | NY920 (antibody, human IgG1, kappa, V domains shown, also called anti-CD48 antibody NY920; candidate antibody NY920) VH: EVQLLESGGGLVQPGGSLRLSCAASGFTFSSFAMSWVRQAPGKGLEWVSAISGFGGSTYYADSVKGRFTISRDNSKNTLYLQMNSLRAEDTAVYYCARQFWEDQPFYFDYWGQGTLVTVSS VL: not shown
 |  |  | no binding (tested: 500 ng/mL) | humanized CD48A (antibody, V domains shown, Murine CD48A is clone MEM-102; also called control antibody CD48A) VH: QVQLVQSGSELKKPGASVKVSCKASGYTFTDFGMNWVRQAPGQGLEWMGWINTFTGEPSYGNVFKGRFVFSLDTSVSTAYLQISSLKAEDTAVYYCARRHGNGNVFDSWGQGTLVTVSS VL: EIVLTQSPDFQSVTPKEKVTITCRASQSIGSNIHWYQQKPDQSPKLLIKYTSESISGVPSRFSGSGSGTDFTLTINSLEAEDAATYYCQQSNSWPLTFGGGTKVEIKR
